Biological target: T1, folate receptor Frα (UniProt P15328 25-234, limits assumed)
T1 construct: whole, on cells; also called α-FR; folate receptor alpha
Test: flow cytometry on IGROV-1, KB and A431-tFR cells; 0.025 mg/mL antibody fragment on nanocubes, 4° C., 1 hour; detected with anti-myc primary antibody and Alexa-488 secondary antibody
Experimental: The A431-tFR and A431-MOCK cells provided by the IRCSS Foundation, National Cancer Institute, Milan, Italy, were grown in the modified Dulbecco culture medium (DMEM, Merck, Kenilworth, USA). IGROV-1 cells (ATCC, UK) were cultured in RPMI-1640 (RPMI-1640, Merck, Kenilworth, USA). The KB cells (ATCC, UK) were cultured in RPMI-1640 without folic acid (RPMI-1640 without folic acid, Merck, Kenilworth, USA). All culture media were added with 10% inactivated fetal bovine serum (FBS), 1% penicillin-streptomycin and 1% glutamine at 37° C., 95% humidity with 5% CO2. The cells were divided every 3-4 days before reaching confluence.
In these experiments, the functionalized nanocubes of the invention comprising the antibody fragment in a quantity of 0.025 mg/mL were incubated in PBS at 4° C. for 1 hour with 5×10⁵ cells of the cell lines indicated above. As a negative control, the non-functionalised nanocubes with polymer coating were used. Then, after three washes, the cells were incubated for 1 hour at 4° C. with the primary antibody that binds to the myc sequence of the C4 antibody fragment. Following a wash in PBS a secondary antibody conjugated to the fluorescent probe Alexa-488 was added to the cells, capable of binding the Fc portion of the primary antibody.

T1 sequence (P15328 25-234 limits assumed): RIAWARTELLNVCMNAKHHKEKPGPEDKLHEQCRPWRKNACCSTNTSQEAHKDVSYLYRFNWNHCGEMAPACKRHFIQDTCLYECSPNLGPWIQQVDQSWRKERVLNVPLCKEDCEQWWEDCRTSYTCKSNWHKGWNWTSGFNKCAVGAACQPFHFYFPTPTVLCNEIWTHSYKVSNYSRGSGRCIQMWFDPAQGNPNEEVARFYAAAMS

binding result: binds
B1: single chain variable fragment of human antibody C4 (C4 scFv), attached to iron oxide nanocubes (scFv)
scFv: NVQLVESGGGLVQPGRSLRLSCTTSGFTFGDYAMIWARQAPGKGLEWVSSISSSSSYIYYADSVKGRFTISRDNAKNSLYLQMNSLRAEDTAVYYCARERYDFWSGMDVWGKGTTVTVSSGGGGSGGGGSGGSAQSALTQPASVSGSPGQSITISCTGTSSDVGSYNLVSWYQQHPGKAPKLMIYEGSKRPSGVSNRFSGSKSGNAASLTISGLQAEDEADYYCQSYDSSLSVVFGGGTKLTVLGAAAHHHHHHGAAEQ
modifications: histidine tag complexed to Ni2+ of PEG-NTA-Ni linker on the polymer-coated iron oxide nanocube
notes: In the assays the scFv was not free; It was held on polymer-coated cubic iron oxide nanoparticles through its histidine tag and PEG-NTA-Ni, with or without PEG-oxaliplatin; also called scFvC4; C4 antibody fragment
